Data taken from patent US11976099B2, “Compositions and methods for treatment of bone associated diseases” (THE NATIONAL INSTITUTE FOR BIOTECHNOLOGY IN THE NEGEV LTD., priority 2016, dated 2024).

Legend:
[1] = BS^3 chemical cross linking / SDS-PAGE dimerization assay; type: physicochemical; details: for dimerization after BS^3 cross linking: Example 4, BS^3 up to 2500 μM, FIG. 8; for monomer/dimer bands after BS^3 cross linking: Example 11, BS^3 0-2500 μM, SDS-PAGE, FIG. 16A
Method: Then, Tris was added to a final concentration of 30 mM and the mixture was incubated for 15 min at room temperature. Samples were denaturized and loaded on 15% SDS-PAGE. The gels were stained with coomassie blue (InstantBlue, Expedeon, CA, USA) and visualized with MiniBis pro (DNR Bio-Imaging Systems, Jerusalem, Israel).
BS^3 crosslinking assay—Human (4 μg) and murine M-CSFWT (1 μg), M-CSFC31S (1 μg) and M-CSFC31S,M27R (2.5 μg) were incubated with different concentrations of BS^3 [bis(sulfosuccinimidyl)suberate] (ThermoFisher Scientific, MA, USA) cross linker (0, 25 μM, 100 μM, 250 μM, 500 μM, 1000 μM and 2500 μM) for 30 min at room temperature. Then, […] was added to a final concentration of 30 mM, and the mixture was incubated for 15 min at room temperature. Samples were denaturized with sample buffer, boiled, and loaded on 15% SDS-PAGE for protein separation. The gels were stained with InstantBlue staining (Expedeon, CA, USA) for 40 min, followed by two washing steps with double distilled water. The gels were visualized with MiniBis pro (DNR Bio-Imaging Systems, Jerusalem, Israel).
Experiments were conducted in order to verify that the purified variants are incapable of dimerizing. The purified variants were incubated with a cross linker reagent (BS^3 [bis(sulfosuccinimidyl)suberate]) to enhance and visualize non-covalent intermolecular interactions. Following incubation, the reactions were stopped and the samples were loaded in denaturized conditions on a protein gel.
To validate the structural and computational analysis and to verify that M-CSFC31S,M27R is indeed a monomer, several biophysical assays were conducted. First, purified murine and human M-CSFWT, M-CSFC31S and M-CSFC31S,M27R were crosslinked via lysine residues using different amounts of BS^3 reagent [bis(sulfosuccinimidyl)suberate], and the proteins sizes were evaluated using SDS-PAGE (FIG. 16A). Murine M-CSFWT served as positive control, since it has a lysine in the dimerization site (K68), which facilitates the intermolecular cross-linking of the two monomers in the dimer. […] The dimer band became more prominent at higher BS^3 concentrations. It is likely that the non-covalent dimerization allows other lysines in M-CSFC31S to come into close proximity and crosslink.

[2] = test system: MDA-MB-231 breast cancer cells; test: Direct cell binding assay, flow cytometry, MDA-MB-231; type: cell-based, human; details: for direct cell binding: 1 μM, 2.5 μM and 7.5 μM labeled protein; for relative cell binding ability: MDA-MB-231
Method: M-CSFM and two variants of M-CSFRGD (4.22 and 5.6) were labeled with a molar ratio of 1:1 of DyLight™ 488 NHS Ester (Thermo Fisher Scientific, USA) and the purified protein. The solution was incubated for 1 h at room temperature and the residual unbound dye was washed three times with Vivaspin (GE Healthcare life sciences, UK) with a 3,000 Da cutoff. […] MDA-MB-231 breast cancer cells were used for direct cell binding of the purified proteins. Cells were plated at a density of 10^5 per well in 96-well plates and were washed with […] of PBSA 0.1%. The cells were centrifuged at 150 g for 5 min, and the supernatant was removed; this step was repeated twice. Then, the labeled M-CSFRGD protein variants and the M-CSFM monospecific control were added in IBB+1% BSA to the cells at different concentrations (1, 2.5 and 7.5 μM) in a total volume of 100 μl and incubated at 4° C. with gentle agitation for 2 h. For c-FMS expression, the cells were stained with PE-anti human CD115 (BioLegend, USA) at a dilution of 1:50 and for αvβ3 integrin expression with FITC-anti human β3 integrin (BioLegend, USA) at a dilution of 1:25 for 30 min. Then, the cells were washed twice as described above and analyzed with Accuri C6 flow cytometry analyzer (BD Biosciences, USA). The mean fluorescence of the cells was subtracted from the other samples. The experiment was repeated three times at each concentration.
Assays for direct cell binding were conducted on breast cancer cell line MDA-MB-231 and murine primary cells with flow cytometer. MDA-MB-231 was used because the cells express αvβ3 integrin and c-FMS on the cell membrane, a protein expression pattern that imitates the osteoclast state just before reaching full differentiation and maturation. […] Murine primary cells that were obtained from bone marrow were tested for binding without any induction of differentiation (t=0). Such cells express high levels of c-FMS and low levels of αvβ3 integrin (FIGS. 11A and 11B), a state that imitates an early osteoclast differentiation stage.

[3] = Dynamic light scattering (DLS); type: physicochemical; details: 0.5 mg/ml; angle of 90°
Method: Dynamic light scattering (DLS)—The hydrodynamic radii of M-CSFWT, M-CSFC31S and M-CSFC31S,M27R were determined using DLS. The proteins, in a concentration of 0.5 mg/ml, were filtered to remove aggregates and contaminants. Light scattering was measured at an angle of 90° three times, in two different experiments, resulting in a total of six measurements. […] An analysis of the solution was conducted to verify that the most abundant specie was in the size range of 1-10 nm. The peak for this specie was compared for the three different proteins, and the hydrodynamic radius of each was determined as the maximum of the peak.
Next, the size of the M-CSF variants was evaluated in solution. M-CSFWT, M-CSFC31S and M-CSFC31S,M27R at concentrations of 0.5 mg/ml were subjected to dynamic light scattering (DLS) analysis at an angle of 90°. The peaks for the most abundant species in each sample were compared (FIG. 16B), and an estimated hydrodynamic radius was calculated from each peak. […] To confirm that the oligomeric state of M-CSFC31S,M27R is not concentration dependent, all M-CSF variants were subjected to SAXS measurements at concentrations of 3, 5 and 7 mg/ml. Of note is that the Rg values remained within a similar range for M-CSFWT and M-CSFC31S. There was a slight increase in the Rg value of M-CSFC31S,M27R at higher concentrations, presumably due to an increase in interparticle interactions. […] To illustrate the oligomeric states of these three proteins in solution, low-resolution structures were reconstructed from the SAXS data. Ab initio models were reconstructed from SAXS data using the computer program GASBOR and were averaged by the computer program DAMAVER. The crystal structure of the M-CSF dimer and the structure of the monomer were aligned with the obtained SAXS models (yellow, M-CSFWT; green, M-CSFC31S; cyan, M-CSFC31S,M27R) using PyMOL (http://www.pymol.org).

| Molecule | dimerization after BS^3 cross linking [1] | direct cell binding [2] | relative cell binding ability [2] | monomer/dimer bands after BS^3 cross linking [1] | hydrodynamic radius [3] [nm] |
| --- | --- | --- | --- | --- | --- |
| 5.6: bispecific M-CSFRGD variant from sort five; M-CSFM loop replaced by XXXRGDXXX motif; binds c-FMS and αvβ3 integrin (protein, left off: small tags and cut ends) EEVSEYCSHMIGSGHLQSLQRLIDTYPRGDMCSITFEFVDQEQLKDPVCYLKKAFLLVQDIMEDTMRFRDNTPNAIAIVQLQELSLRLKSCFTKDYEEHDKACVRTFYETPLQLLEKVKNVFNETKNLLDKDWNIFSKNCNNSFAECSSQGHERQSEGS | did not show any dimerization | showed binding | best binding ability |  |  |
| M-CSFM: 158 amino acid M-CSF with cysteine at position 31 replaced by serine (SEQ ID NO: 2) (protein) EEVSEYCSHMIGSGHLQSLQRLIDSQMETSSQITFEFVDQEQLKDPVCYLKKAFLLVQDIMEDTMRFRDNTPNAIAIVQLQELSLRLKSCFTKDYEEHDKACVRTFYETPLQLLEKVKNVFNETKNLLDKDWNIFSKNCNNSFAECSSQGHERQSEGS | some dimerization interactions | showed binding | weakest binder | mixture of monomer and dimer bands | 3.56±0.24 |
| M-CSFC31S,M27R: M-CSF double mutant containing both C31S and M27R; monomeric, monospecific c-FMS antagonist (protein) EEVSEYCSHMIGSGHLQSLQRLIDSQRETSSQITFEFVDQEQLKDPVCYLKKAFLLVQDIMEDTMRFRDNTPNAIAIVQLQELSLRLKSCFTKDYEEHDKACVRTFYETPLQLLEKVKNVFNETKNLLDKDWNIFSKNCNNSFAECSSQGHERQSEGS |  |  |  | did not produce any band corresponding to a dimer | 2.94±0.10 |
| M-CSFWT: wild-type human M-CSF, disulfide-bond-linked homodimer which binds and activates c-FMS (protein) EEVSEYCSHMIGSGHLQSLQRLIDSQMETSCQITFEFVDQEQLKDPVCYLKKAFLLVQDIMEDTMRFRDNTPNAIAIVQLQELSLRLKSCFTKDYEEHDKACVRTFYETPLQLLEKVKNVFNETKNLLDKDWNIFSKNCNNSFAECSSQGHERQSEGS |  |  |  | only a faint band in a size that corresponds to a dimer | 3.73±0.19 |
